Experimental data reported in patent US20130217685, “COMPOUNDS FOR MODULATING RNA BINDING PROTEINS AND USES THEREFOR” (UNIVERSITY OF MASSACHUSETTS, published 2013).

Molecular target: T1, MEX-5 TZF domain (236-350) (Caenorhabditis elegans, UniProt Q9XUB2 Q9XUB2:236-350)
T1 sequence: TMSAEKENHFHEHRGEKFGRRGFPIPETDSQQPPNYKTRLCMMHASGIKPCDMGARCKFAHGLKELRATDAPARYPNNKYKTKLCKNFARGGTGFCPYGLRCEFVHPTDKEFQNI
Test: EMSA; 120 nM protein, 2-3 nM RNA; compound dose response (compound E IC50 2.0 uM)
Conditions: tags: N-terminal MBP (pMal-c, NEB); ORFeome clone, Open Biosystems; label: 3'-fluorescein
Description: A further dose response assay was performed on select compounds of the invention as described below. A sub-saturating concentration of MEX-5 or POS-1 (120 nM) was equilibrated with limiting fluorescein labeled RNA (2-3 nM, TCR2 RNA or MEX-3 UTR fragment RNA respectively) in the presence of varying concentrations of compound. Following equilibration, the reactions were loaded onto a 5% slab polyacrylamide gel and subjected to electrophoresis for about 1 hour to separate protein-RNA complex from free RNA. The gel was scanned on a FUJI FLA-5000 imager, and the fraction of bound RNA determined by dividing the intensity of the bound RNA by the intensity of the bound RNA plus the free RNA. The fraction of […] was plotted as a function of compound concentration and fit to a sigmoidal dose response function in order to determine the IC₅₀, the concentration that gives half maximal inhibition.

UUUCUUUAUAACUUGUUACAAUUUUUGAAA (ssRNA) [TCR2]
binding result: binds
